Results on four molecules are retold here after PMC3640471, “The structures of Arabidopsis Deg5 and Deg8 reveal new insights into HtrA proteases” (Acta Crystallographica Section D: Biological Crystallography, 2013).

For data set [1], the target named is Deg8 (sample of the analytical SEC) (Arabidopsis thaliana) (UniProt Q9LU10). The data set can be described thus: SEC; analytical SEC of Deg8 at pH 6.0; Superdex 200 10/300 GL, 10 µM protein, sodium phosphate, 150 mM NaCl. In general terms: SEC sorts molecules by how far they enter the pores of the column.
The target is the same in data set [2]. The data set can be described thus: SEC; analytical SEC of Deg8 at pH 8.0; Superdex 200 10/300 GL, 10 µM protein, sodium phosphate, 150 mM NaCl.
Data set [3] concerns the molecule itself. The experiment in a line: crystal structure; Deg5 (S266A), space group C2, three molecules per asymmetric unit, 2.6 Å.
Data set [4] concerns the molecule itself. The data set can be described thus: SEC; analytical SEC, Superdex 200 10/300 GL, 10 µM protein, sodium phosphate pH 6.0 or 8.0, 150 mM NaCl.
Data set [5] concerns the molecule itself. The experiment in a line: crystal structure; Deg8 (S292A), space group C2, three molecules per asymmetric unit, 2.0 Å; hexamer in the crystal.

Substitutions are numbered along the chain they refer to. Names and notes keep the numbering of the source.

“Deg8 (sample of the analytical SEC) (from UniProt Q9LU10 91-448) (enzyme)”: the stoichiometry N in data set [1] worked out at 3; in data set [2], 6.

B1: Arabidopsis thaliana Deg5 (S266A) (enzyme)
chain: LEQFKEKEEELEEEEERNVNLFQKTSPSVVYIEAIELPKTSSGDILTDEENGKIEGTGSGFVWDKLGHIVTNYHVIAKLATDQFGLQRCKVSLVDAKGTRFSKEGKIVGLDPDNDLAVLKIETEGRELNPVVLGTSNDLRVGQSCFAIGNPYGYENTLTIGVVSGLGREIPSPNGKSISEAIQTDADINSGNAGGPLLDSYGHTIGVNTATFTRKGSGMSSGVNFAIPIDTVVRTVPYLIVYGTAYRDR
notes: HtrA protease Deg5 of Arabidopsis thaliana, catalytic Ser266 mutated to alanine; PDB 4ic5 holds the crystallised chain; source: purified; expression and purification described previously (Fan et al., 2012)
As to B1, the “stoichiometry N” value in data set [3] amounted to 3.

B2: Deg5 (E87A/D260A/S266A) (enzyme, Arabidopsis thaliana)
chain: B1 chain with E14A, D187A
notes: HtrA protease Deg5 of Arabidopsis thaliana with E87A, D260A and S266A; parent is Deg5 (S266A), m1; also called Deg5 (S266A/E87A/D260A) triple mutant; mutant (E87A/D260A/S266A)
B2: the “stoichiometry N” value in data set [4] was 3.

B3: Arabidopsis thaliana Deg8 (S292A) (enzyme, UniProt Q9LU10 91-448, looked up)
chain: LGDPSVATVEDVSPTVFPAGPLFPTEGRIVQLFEKNTYSVVNIFDVTLRPQLKMTGVVEIPEGNGSGVVWDGQGYIVTNYHVIGNALSRNPSPGDVVGRVNILASDGVQKNFEGKLVGADRAKDLAVLKVDAPETLLKPIKVGQSNSLKVGQQCLAIGNPFGFDHTLTVGVISGLNRDIFSQTGVTIGGGIQTDAAINPGNAGGPLLDSKGNLIGINTAIFTQTGTSAGVGFAIPSSTVLKIVPQLIQFSKVLRAGINIELAPDPVANQLNVRNGALVLQVPGKSLAEKAGLHPTSRGFAGNIVLGDIIVAVDDKPVKNKAELMKILDEYSVGDKVTLKIKRGNEDLELKISLEEKSS
notes: HtrA protease Deg8 of Arabidopsis thaliana, 358 residues Leu91-Ser448, catalytic Ser292 mutated to alanine; residues 104-448 defined in the density; source: expression and purification described previously (Shan et al., 2013)
For B3, in data set [5], the “stoichiometry N” value came to 6.

As usually defined, the stoichiometry N is the number of molecules, sites or subunits per partner or assembly.
